According to the supplement of paper PMC7877785:
± gives the uncertainty stated by the source.

Assay: self-splicing fitness, log relative to wild type (ln ratio); higher = more splicing; Tetrahymena group I intron in knt gene, E. coli kanamycin selection, DiMSum; sequences stand for … in CUCUCU…GGAGGGAAAAGUUAUCAGGCAUGCACCUGGUAGCUAGUCUUUAAACCAAUAGAUUGCAUCGGUUUAAAAGGCAAGACCGUCAAAUUGCGGGAAAGGGGUCAACAGCCGUUCAGUACCAAGUCUCAGGGGAAACUUUGAGAUGGCCUUGCAAAGGGUAUGGUAAUAAGCUGACGGACAUGGUCCUAACCACGCAGCCAAGUCCUAAGUCAACAGAUCUUCUGUUGAUAUGGAUGCAGUUCACAGACUAAAUGUCGGUCGGGGAAGAUGUAUUCUUCUCAUAAGAUAUAGUCGGACCUCUCCUUAAUGGGAGCUAGCGGAUGAAGUGAUGCAACACUGGAGCCGCUGGGAACUAAUUUGUAUGCGAAAGUAUAUUGAUUAGUUUUGGAGUACUCGUGGUCG
How it was run: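 Pooled colonies went to amplicon sequencing on an Illumina HiSeq 2500 after six replicate transformations. The plates were LB agar with 100 μg/mL carbenicillin, 50 μM IPTG and 0.2% rhamnose, with or without 25 μg/mL kanamycin, incubated overnight at 37°C or 30°C. The E. coli BL21(DE3) library had all eight P1ex-region intron nucleotides randomised, the intron placed in the knt kanamycin-resistance gene on pET-22b(+). DiMSum fitness is the error-weighted combination of replicate fold changes, kanamycin against none, normalised to wild type.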

UUGAAGCAAUAUUACGGACG
self-splicing fitness (ln) (30 °C): -0.0419 ± 0.12 | self-splicing fitness (ln) (37 °C): 0.902 ± 0.15

UUGAAGCAAUAUUACGGGGU
self-splicing fitness (ln) (30 °C): -2.29 ± 0.2 | self-splicing fitness (ln) (37 °C): -2.27 ± 0.26

UUGAAGCAAUAUUACGUACA
self-splicing fitness (ln) (30 °C): 0.247 ± 0.1 | self-splicing fitness (ln) (37 °C): 0.767 ± 0.14

UUGAAGCAAUAUUACGUACU
self-splicing fitness (ln) (30 °C): -0.493 ± 0.088 | self-splicing fitness (ln) (37 °C): -0.0917 ± 0.11

UUGAAGCAAUAUUACGUCGG
self-splicing fitness (ln) (30 °C): 0.235 ± 0.075 | self-splicing fitness (ln) (37 °C): -0.024 ± 0.084

UUGAAGCAAUAUUACGUGAC
self-splicing fitness (ln) (30 °C): -3.1 ± 0.3 | self-splicing fitness (ln) (37 °C): -1.29 ± 0.24

UUGAAGCAAUAUUACGUUGA
self-splicing fitness (ln) (30 °C): -0.405 ± 0.093 | self-splicing fitness (ln) (37 °C): -0.404 ± 0.11

UUGCAGCAAUAUUACGAAAG
self-splicing fitness (ln) (37 °C): -1.5 ± 0.35

UUGCAGCAAUAUUACGACGG
self-splicing fitness (ln) (30 °C): -0.213 ± 0.076 | self-splicing fitness (ln) (37 °C): 0.395 ± 0.11

UUGCAGCAAUAUUACGAGCA
self-splicing fitness (ln) (30 °C): -2.35 ± 0.17 | self-splicing fitness (ln) (37 °C): -0.7 ± 0.11

UUGCAGCAAUAUUACGAGUC
self-splicing fitness (ln) (30 °C): -3.64 ± 0.2 | self-splicing fitness (ln) (37 °C): -2.64 ± 0.28

UUGCAGCAAUAUUACGAUGA
self-splicing fitness (ln) (30 °C): -0.402 ± 0.097 | self-splicing fitness (ln) (37 °C): 0.367 ± 0.12

UUGCAGCAAUAUUACGCACU
self-splicing fitness (ln) (30 °C): -1.6 ± 0.13 | self-splicing fitness (ln) (37 °C): -1.15 ± 0.13

UUGCAGCAAUAUUACGCAUG
self-splicing fitness (ln) (30 °C): -2.52 ± 0.13 | self-splicing fitness (ln) (37 °C): -2.99 ± 0.19

UUGCAGCAAUAUUACGCGUC
self-splicing fitness (ln) (30 °C): -3.44 ± 0.15 | self-splicing fitness (ln) (37 °C): -1.61 ± 0.14

UUGCAGCAAUAUUACGCUAA
self-splicing fitness (ln) (30 °C): -1.12 ± 0.16 | self-splicing fitness (ln) (37 °C): -0.551 ± 0.16

UUGCAGCAAUAUUACGCUUC
self-splicing fitness (ln) (30 °C): -3.76 ± 0.35 | self-splicing fitness (ln) (37 °C): -2.76 ± 0.25

UUGCAGCAAUAUUACGGACG
self-splicing fitness (ln) (30 °C): -0.806 ± 0.17 | self-splicing fitness (ln) (37 °C): -1.1 ± 0.23

UUGCAGCAAUAUUACGGAUC
self-splicing fitness (ln) (30 °C): -3.22 ± 0.27 | self-splicing fitness (ln) (37 °C): -2.93 ± 0.37

UUGCAGCAAUAUUACGGCAG
self-splicing fitness (ln) (30 °C): -0.754 ± 0.14 | self-splicing fitness (ln) (37 °C): -1.27 ± 0.17

UUGCAGCAAUAUUACGGCGG
self-splicing fitness (ln) (30 °C): -1.7 ± 0.081 | self-splicing fitness (ln) (37 °C): -1.01 ± 0.11

UUGCAGCAAUAUUACGGCUA
self-splicing fitness (ln) (30 °C): 0.128 ± 0.045 | self-splicing fitness (ln) (37 °C): 0.358 ± 0.06

UUGCAGCAAUAUUACGGGAU
self-splicing fitness (ln) (30 °C): -3.42 ± 0.17 | self-splicing fitness (ln) (37 °C): -1.68 ± 0.12

UUGCAGCAAUAUUACGGGUC
self-splicing fitness (ln) (30 °C): -2.73 ± 0.21 | self-splicing fitness (ln) (37 °C): -1.7 ± 0.22

UUGCAGCAAUAUUACGGUAC
self-splicing fitness (ln) (30 °C): -3.25 ± 0.33 | self-splicing fitness (ln) (37 °C): -0.374 ± 0.18

UUGCAGCAAUAUUACGGUGG
self-splicing fitness (ln) (30 °C): -1.79 ± 0.1 | self-splicing fitness (ln) (37 °C): -0.742 ± 0.1

UUGCAGCAAUAUUACGUAAC
self-splicing fitness (ln) (30 °C): -3.38 ± 0.16 | self-splicing fitness (ln) (37 °C): -2.81 ± 0.21

UUGCAGCAAUAUUACGUAAG
self-splicing fitness (ln) (30 °C): -0.486 ± 0.089 | self-splicing fitness (ln) (37 °C): 0.527 ± 0.11

UUGCAGCAAUAUUACGUAGU
self-splicing fitness (ln) (30 °C): -3.7 ± 0.22 | self-splicing fitness (ln) (37 °C): -2.51 ± 0.28

UUGCAGCAAUAUUACGUCAU
self-splicing fitness (ln) (30 °C): -2.15 ± 0.098 | self-splicing fitness (ln) (37 °C): -1.13 ± 0.1

UUGCAGCAAUAUUACGUCUU
self-splicing fitness (ln) (30 °C): -0.0818 ± 0.069 | self-splicing fitness (ln) (37 °C): 0.289 ± 0.077

UUGCAGCAAUAUUACGUGUU
self-splicing fitness (ln) (30 °C): -3.1 ± 0.12 | self-splicing fitness (ln) (37 °C): -2.47 ± 0.13

UUGCAGCAAUAUUACGUUAG
self-splicing fitness (ln) (30 °C): -1.22 ± 0.053 | self-splicing fitness (ln) (37 °C): -0.899 ± 0.085

UUGCAGCAAUAUUACGUUAU
self-splicing fitness (ln) (30 °C): -3.03 ± 0.22 | self-splicing fitness (ln) (37 °C): -2.6 ± 0.21

UUGCAGCAAUAUUACGUUGC
self-splicing fitness (ln) (30 °C): -1.47 ± 0.1 | self-splicing fitness (ln) (37 °C): -2.86 ± 0.21

UUGGAGCAAUAUUACGACAA
self-splicing fitness (ln) (30 °C): -1.07 ± 0.16 | self-splicing fitness (ln) (37 °C): -0.647 ± 0.18

UUGGAGCAAUAUUACGAGGU
self-splicing fitness (ln) (30 °C): -2.02 ± 0.47
